Values belong to the molecule of their own block, whether it stands above or below them.
Columns and labels:
[1] = target: GrxS14 (Arabidopsis thaliana) (UniProt Q84Y95); conditions: cited from earlier work
[2] = target: T1, S. cerevisiae monothiol glutaredoxin Grx3 (S. cerevisiae, UniProt Q03835 1-250); test: ITC
T1 sequence (looked up): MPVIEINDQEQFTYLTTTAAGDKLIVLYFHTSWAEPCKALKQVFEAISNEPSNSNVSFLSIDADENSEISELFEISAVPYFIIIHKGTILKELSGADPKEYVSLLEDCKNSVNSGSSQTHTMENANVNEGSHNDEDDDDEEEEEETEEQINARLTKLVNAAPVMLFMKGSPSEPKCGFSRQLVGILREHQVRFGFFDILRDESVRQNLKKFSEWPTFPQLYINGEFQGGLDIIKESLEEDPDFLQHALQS

[3] = target: T2, E. coli monothiol glutaredoxin Grx4 (E. coli, UniProt P0AC69 1-115); test: ITC
T2 sequence (looked up): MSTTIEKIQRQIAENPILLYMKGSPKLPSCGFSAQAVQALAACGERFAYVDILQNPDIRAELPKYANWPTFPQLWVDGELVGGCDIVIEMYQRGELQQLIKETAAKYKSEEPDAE

Chain of GrxS14 (Arabidopsis thaliana) (Q84Y95 64-173): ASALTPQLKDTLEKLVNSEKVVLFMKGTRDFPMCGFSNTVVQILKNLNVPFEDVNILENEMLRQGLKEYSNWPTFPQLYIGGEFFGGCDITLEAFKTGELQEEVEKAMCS

Molecule: BolA1 (from UniProt Q682I1)
- Kd [1]: 7 µM

- Kd [2]: 20.8 ± 6.6 µM
- dH [2]: -10.1 ± 5.4 kcal/mol
- stoichiometry N [2]: 0.4 ± 0.19 sites
B1: S. cerevisiae Fra2 (natural protein, UniProt P53082 1-120, looked up)
chain: MTGERIEKVKINDEFAKSHFLTTQWRETKRQRHYKMPVTEQGLRERIESAIPQVYHIIVTDLSYGCGQSFDIVVVSDFFQGKSKLMRSRAVNKAVKEELQEIHAFSCKCYTEEEWSKIVV

- Kd [3]: 4.6 ± 0.9 µM
- dH [3]: -3.1 ± 0.1 kcal/mol
- stoichiometry N [3]: 0.97 ± 0.03 sites
B2: E. coli BolA (natural protein, UniProt P0ABE2 1-105, looked up)
chain: MMIRERIEEKLRAAFQPVFLEVVDESYRHNVPAGSESHFKVVLVSDRFTGERFLNRHRMIYSTLAEELSTTVHALALHTYTIKEWEGLQDTVFASPPCRGAGSIA

- Kd [3]: 3.4 ± 0.1 µM
- dH [3]: -5.9 ± 0.1 kcal/mol
- stoichiometry N [3]: 0.7 ± 0.01 sites
B3: E. coli BolA-like protein IbaG (natural protein, UniProt P0A9W6 1-84, looked up)
chain: MENNEIQSVLMNALSLQEVHVSGDGSHFQVIAVGELFDGMSRVKKQQTVYGPLMEYIADNRIHAVSIKAYTPAEWARDRKLNGF

Reference: PMC5258196 (Biochemistry, 2016)
